In PMC5605669 (2017):

B1: APOBEC3G, wild type [human] / itself (parent complex)
chain: MKPHFRNTVERMYRDTFSYNFYNRPILSRRNTVWLCYEVKTKGPSRPPLDAKIFRGQVYSELKYHPEMRFFHWFSKWRKLHRDQEYEVTWYISWSPCTKCTRDMATFLAEDPKVTLTIFVARLYYFWDPDYQEALRSLCQKRDGPRATMKIMNYDEFQHCWSKFVYSQRELFEPWNNLPKYYILLHIMLGEILRHSMDPPTFTFNFNNEPWVRGRHETYLCYEVERMHNDTWVLLNQRRGFLCNQAPHKHGFLEGRHAELCFLDVIPFWKLDLDQDYRVTCFTSWSPCFSCAQEMAKFISKNKHVSLCIFTARIYDDQGRCQEGLRTLAEAGAKISIMTYSEFKHCWDTFVDHQGCPFQPWDGLDEHSQDLSGRLRAILQNQEN

Variants of: B1
Experiment: single-molecule ssDNA binding curves fit with two-step binding model (k2 from k slow); parent: 0.007; read off a plot

Row | screen value [s⁻¹] | Variant
1 | ~0.0066 | chain 1 I314A, chain 1 Y315A
2 | ~0.0057 | chain 1 R313A, chain 1 D316A, chain 1 D317A, chain 1 Q318A
